We go through 11 molecules from patent US20190184007A1.

The target in test [1] is T1, HLA DQA1*0102:DQB1*0602, P01920.
T1 chain 1: not shown
T1 chain 2: not shown
Nature of the test: REVEAL class II binding assay (cell-free).

A further test concerns the target T2, HLA DQA1*0101:DQB1*0501.
T2 chain 1: not shown
T2 chain 2: not shown
Briefly: REVEAL class II binding assay (cell-free).

In the case of RELILYDKEEMRRIWRQANNG (modifications not checked) [Peptide #2 (X181 NP fragment)], the REVEAL 24 hours (% of positive control signal) in test [1] was 0.5. In the test with HLA DQA1*0101:DQB1*0501, this molecule returned an REVEAL 0 hrs (% of positive control signal) of 1.1 and an REVEAL 24 hours (% of positive control signal) of 1.
Turning to LTVAAWSVKTSPLNM (modifications not checked) [Peptide #13 (Reverse of #10)], in test [1], the REVEAL 0 hrs (% of positive control signal) was determined as 0.9, the REVEAL 24 hours (% of positive control signal) amounted to 0.4 and the Stability index turned out to be 0.2. In the test with HLA DQA1*0101:DQB1*0501, this molecule returned an REVEAL 0 hrs (% of positive control signal) of 0.3, an REVEAL 24 hours (% of positive control signal) of 0.3 and a Stability index of 0.4.
In test [1], EKATNPIVPSFDMSN (modifications not checked) [Peptide #7 (Common CP sequence)] came in with an REVEAL 0 hrs (% of positive control signal) of 0, an REVEAL 24 hours (% of positive control signal) of 0 and a Stability index of 0. In the test with HLA DQA1*0101:DQB1*0501, this molecule registered an REVEAL 0 hrs (% of positive control signal) of 0, an REVEAL 24 hours (% of positive control signal) of 0 and a Stability index of 0.
On to RELILYDKEEIRRIWRQANNG (modifications not checked) [Peptide #1 (X179-A NP fragment)], for which, in test [1], the REVEAL 0 hrs (% of positive control signal) was 24.4, the REVEAL 24 hours (% of positive control signal) worked out at 16.9 and the Stability index came to 11.1. In the test with HLA DQA1*0101:DQB1*0501, this molecule registered an REVEAL 0 hrs (% of positive control signal) of 27.8 and an REVEAL 24 hours (% of positive control signal) of 7.4.
For the molecule VGKMIGGIGRFYIQM (modifications not checked) [Peptide #5 (Common CP sequence)], in test [1], the REVEAL 0 hrs (% of positive control signal) was 77.3, the REVEAL 24 hours (% of positive control signal) was found to be 52.3 and the Stability index stood at 33. In addition, in the test with HLA DQA1*0101:DQB1*0501, the REVEAL 0 hrs (% of positive control signal) came out at 43.6, the REVEAL 24 hours (% of positive control signal) was found to be 13.9 and the Stability index is 6.4.
With ALNRGSGSGIITSDA (modifications not checked) [Peptide #17 (Hemagglutinin fragment)], in test [1], the REVEAL 0 hrs (% of positive control signal) came out at 0, the REVEAL 24 hours (% of positive control signal) was 0 and the Stability index worked out at 0. Besides, in the test with HLA DQA1*0101:DQB1*0501, the REVEAL 0 hrs (% of positive control signal) stood at 0, the REVEAL 24 hours (% of positive control signal) was 0 and the Stability index amounted to 0.
Turning to ALSRGFGSGIITSNA (modifications not checked) [Peptide #18 (Hemagglutinin fragment)], in test [1], the REVEAL 0 hrs (% of positive control signal) came to 0, the REVEAL 24 hours (% of positive control signal) was 0 and the Stability index turned out to be 0. Also, in the test with HLA DQA1*0101:DQB1*0501, the REVEAL 0 hrs (% of positive control signal) turned out to be 0, the REVEAL 24 hours (% of positive control signal) came out at 0 and the Stability index turned out to be 0.
In test [1], AMERNAGSGIIISDT (modifications not checked) [Peptide #16 (Hemagglutinin fragment)] displayed an REVEAL 0 hrs (% of positive control signal) of 0, an REVEAL 24 hours (% of positive control signal) of 0 and a Stability index of 0. In the test with HLA DQA1*0101:DQB1*0501, the REVEAL 0 hrs (% of positive control signal) is 0.1, the REVEAL 24 hours (% of positive control signal) is 0.1 and the Stability index was 0.1.
For LILYDKEEMRRIWRQ (modifications not checked) [Peptide #4 (X181 NP fragment)], in test [1], the REVEAL 0 hrs (% of positive control signal) worked out at 0.5, the REVEAL 24 hours (% of positive control signal) was determined as 0.4 and the Stability index worked out at 0.6. In the test with HLA DQA1*0101:DQB1*0501, the REVEAL 0 hrs (% of positive control signal) turned out to be 0.1, the REVEAL 24 hours (% of positive control signal) came out at 0.1 and the Stability index was 0.1.
In test [1], IDPFKLLQNSQVVSL (modifications not checked) [Peptide #8 (Common CP sequence)] yielded an REVEAL 0 hrs (% of positive control signal) of 0.1, an REVEAL 24 hours (% of positive control signal) of 0.1 and a Stability index of 0.1. In the test with HLA DQA1*0101:DQB1*0501, the REVEAL 0 hrs (% of positive control signal) is 0, the REVEAL 24 hours (% of positive control signal) amounted to 0 and the Stability index turned out to be 0.
In test [1], SGAAGAAVKGVGTMV (modifications not checked) [Peptide #6 (Common CP sequence)] showed an REVEAL 0 hrs (% of positive control signal) of 0.1, an REVEAL 24 hours (% of positive control signal) of 0.1 and a Stability index of 0.1. In the test with HLA DQA1*0101:DQB1*0501, this molecule returned an REVEAL 0 hrs (% of positive control signal) of 0, an REVEAL 24 hours (% of positive control signal) of 0 and a Stability index of 0.
